Laboratory results reported in US20210060116A1 (published 2021).

How the values were obtained:
[1] = target: T1, Recombinant human p65 protein (r-p65) with DDK tag (catalog number TP320780) (human, UniProt Q04206 1-551); experiment: score table: the mark stands in the column >3 of KD (uM)
T1 construct: mature; also called r-p65-DDK; human r-p65; not shown: DDK tag

[2] = target: Recombinant human p65 protein (r-p65) with DDK tag (catalog number TP320780) (human) (UniProt Q04206); experiment: plate ELISA, Scatchard analysis by the method of Friguet et al.
Recombinant human p65 protein (r-p65) with DDK tag (catalog number TP320780) (human), sequence (Q04206 whole entry): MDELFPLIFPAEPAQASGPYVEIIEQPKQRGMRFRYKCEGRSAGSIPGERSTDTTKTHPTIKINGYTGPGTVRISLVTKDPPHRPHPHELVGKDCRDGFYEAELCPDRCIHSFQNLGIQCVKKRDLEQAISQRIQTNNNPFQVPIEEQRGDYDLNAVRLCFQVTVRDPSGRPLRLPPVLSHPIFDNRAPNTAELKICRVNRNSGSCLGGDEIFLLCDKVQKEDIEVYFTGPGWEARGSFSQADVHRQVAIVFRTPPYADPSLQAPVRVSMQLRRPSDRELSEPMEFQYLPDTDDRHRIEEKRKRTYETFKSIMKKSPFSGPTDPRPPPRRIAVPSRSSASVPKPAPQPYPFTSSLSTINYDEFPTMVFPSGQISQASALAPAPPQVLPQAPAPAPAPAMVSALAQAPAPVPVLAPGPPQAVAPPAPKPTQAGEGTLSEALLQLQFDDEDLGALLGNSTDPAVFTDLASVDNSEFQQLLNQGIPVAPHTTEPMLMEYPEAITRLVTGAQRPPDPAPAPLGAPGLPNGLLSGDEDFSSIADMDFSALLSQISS

[3] = target: Recombinant human p65 protein (r-p65) with DDK tag (catalog number TP320780) (human) (UniProt Q04206); experiment: plate ELISA, peptide 20-640 µM and r-p65, anti-DDK detection; at the lowest concentration evaluated
[4] = target: T1, Recombinant human p65 protein (r-p65) …; experiment: score table: the mark stands in the column <3 of KD (uM)

T1 sequence (Q04206 whole entry): as above

Ac-EPAPEQPDG-NH2 (also called Analog 8) [PGA-5]
Kd [1]: > 3000 nM

Ac-EPAPESPQV-NH2 (also called Analog 7) [PGA-4]
Kd [1]: > 3000 nM

Ac-APKPYQPRG-NH2 (also called Analog 20; GA-1) [PGA-1]
Kd [1]: > 3000 nM

Ac-EPAPLAPYG-NH2 [GA-2 (GILZ analog 2, as labelled in Examples 3 to 6)]
Kd [2]: 3240 nM
percent bound r-p65 [3]: > 25%

Ac-APKPYQPRG-NH2 [GA-1 (GILZ analog 1, as labelled in Examples 3 to 6)]
Kd [2]: 2290 nM
percent bound r-p65 [3]: > 25%

Ac-EPAPYQPEG-NH2 (also called Analog 14) [PGA-3]
Kd [1]: > 3000 nM

Ac-EPAPLAPYG-NH2 (also called Analog 3; GA-2) [PGA-2]
Kd [4]: < 3000 nM
